Laboratory results: patent publication US20160175358A1

Biological target: δ1 TCR on δ1 T-cells in PBMCs (human) (UniProt O00548)
Assay: cell-based or functional assay

Sequence of UniProt O00548 (O00548 18-723, stated change not applied): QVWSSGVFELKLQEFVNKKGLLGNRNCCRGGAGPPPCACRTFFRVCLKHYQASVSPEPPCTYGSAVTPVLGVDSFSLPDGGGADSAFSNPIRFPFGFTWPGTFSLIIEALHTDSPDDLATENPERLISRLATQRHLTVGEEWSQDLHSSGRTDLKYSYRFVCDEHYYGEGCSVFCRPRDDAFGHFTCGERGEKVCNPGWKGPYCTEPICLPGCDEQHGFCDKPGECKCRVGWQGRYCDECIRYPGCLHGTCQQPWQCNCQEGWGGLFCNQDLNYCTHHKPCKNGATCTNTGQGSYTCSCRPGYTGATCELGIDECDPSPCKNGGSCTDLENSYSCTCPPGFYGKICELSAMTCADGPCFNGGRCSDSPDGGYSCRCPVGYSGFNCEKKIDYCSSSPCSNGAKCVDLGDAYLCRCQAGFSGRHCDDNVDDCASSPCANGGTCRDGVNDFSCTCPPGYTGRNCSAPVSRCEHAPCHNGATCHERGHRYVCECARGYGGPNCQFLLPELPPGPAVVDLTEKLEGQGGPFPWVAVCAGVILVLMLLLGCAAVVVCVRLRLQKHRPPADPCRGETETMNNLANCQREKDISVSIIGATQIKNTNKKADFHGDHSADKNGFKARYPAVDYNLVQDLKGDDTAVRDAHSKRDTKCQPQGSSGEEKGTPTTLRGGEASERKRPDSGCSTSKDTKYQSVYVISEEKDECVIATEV

induced proliferation, relative to TS8.2: 3 fold
Substance: anti-TCR Vδ1 TS-1 antibody
